Data taken from patent publication US20220401475A1 (Memorial Sloan Kettering, published 2022).

Target: T1, B-cell maturation antigen (BCMA) (human, UniProt Q02223 1-184)
T1 construct: whole, on cells
T1 sequence (looked up): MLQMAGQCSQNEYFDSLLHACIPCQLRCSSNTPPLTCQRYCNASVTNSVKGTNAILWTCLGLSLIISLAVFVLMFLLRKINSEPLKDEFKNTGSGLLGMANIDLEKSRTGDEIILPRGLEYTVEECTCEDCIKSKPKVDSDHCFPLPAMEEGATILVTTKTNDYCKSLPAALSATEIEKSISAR
Test: Flow cytometric trogocytosis assay: 1:1 co-culture of CAR T cells with KMS-12-BM for 0, 1, 2 and 4 h. BCMA loss from the tumour cells (upper panel) and BCMA gain on CAR T cells (lower panel). No concentration axis.

binding result: no binding
B1: 22-BBζ CAR (CD22-BBζ-DsRed, m971 CD22-specific scFv) (other)
chain: QVQLQQSGPGLVKPSQTLSLTCAISGDSVSSNSAAWNWIRQSPSRGLEWLGRTYYRSKWYNDYAVSVKSRITINPDTSKNQFSLQLNSVTPEDTAVYYCAREVTGDLEDAFDIWGQGTMVTVSSGGGGSDIQMTQSPSSLSASVGDRVTITCRASQTIWSYLNWYQQRPGKAPNLLIYAASSLQSGVPSRFSGRGSGTDFTLTISSLQAEDFATYYCQQSYSIPQTFGQGTKLEIKAAAPTTTPAPRPPTPAPTIASQPLSLRPEACRPAAGGAVHTRGLDFACDIYIWAPLAGTCGVLLLSLVITLYCNKRGRKKLLYIFKQPFMRPVQTTQEEDGCSCRFPEEEEGGCELRVKFSRSADAPAYQQGQNQLYNELNLGRREEYDVLDKRRGRDPEMGGKPRRKNPQEGLYNELQKDKMAEAYSEIGMKGERRRGKGHDGLYQGLSTATKDTYDALHMQALPPR
notes: Chimeric antigen receptor on human T cells
